According to the supplement of paper PMC5998384:

Assays:
HeLa Kyoto [1] = experiment: solubility change mitosis vs G1/S (difference of NP-40 vs SDS log2 ratios) (log2 ratio difference); higher = more soluble in mitosis
HeLa Kyoto [2] = experiment: melting temperature (median over replicates), in situ; higher = more thermally stable
HeLa Kyoto [3] = experiment: thermal stability score vs G1/S (z-score of summed log2 fold changes over temperatures); higher = more thermally stable than in G1/S
[4] = cell cycle stage: early G1 (4.5 h after nocodazole release)
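For melting temperature (median over replicates), in situ in this document: HeLa Kyoto cells synchronized by double thymidine or nocodazole block, proteins quantified by TMT10plex mass spectrometry, three independent biological replicates.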
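For solubility change mitosis vs G1/S (difference of NP-40 vs SDS log2 ratios) in this document: synchronized HeLa Kyoto cells (double thymidine block for G1/S, nocodazole release for mitosis), protein amounts in NP-40 versus SDS lysates quantified by mass spectrometry, three biological replicates.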
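For thermal stability score vs G1/S (z-score of summed log2 fold changes over temperatures) in this document: synchronized HeLa Kyoto cells, proteins quantified by TMT10plex mass spectrometry, three biological replicates, mitosis taken 0.5 h after nocodazole release, G1/S directly after double thymidine block.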

Substance | solubility change mitosis (log2) (HeLa Kyoto [1]) | also measured
MRPL42 | 0.296 | 
POLR2H | -0.00215 | 
RPS19 | 1.02 | 
MRPL21 | 0.00832 | 
TMEM245 | 0.113 | 
LAMTOR5 | -0.0394 | 
PPP2R5C | -0.158 | 
WDR12 | 0.45 | 
MRPS18A | 0.0389 | 
MRPL19 | 0.048 | 
ABCE1 | -0.151 | 
MRPS2 | 0.0234 | 
ATP1A1 | -0.0968 | 
EIF6 | 0.0864 | 
MRPS28 | 0.31 | 
CTSB | -0.123 | 
MGGSGSRLSKELLAEYQDLTFLTKQEILLAHRRFCELLPQEQRSVESSLRAQVPFEQILSLPELKANPFKERICRVFSTSPAKDSLSFEDFLDLLSVFSDTATPDIKSHYAFRIFDFDDDGTLNREDLSRLVNCLTGEGEDTRLSASEMKQLIDNILEESDIDRDGTINLSEFQHVISRSPDFASSFKIVL [CIB1] | -0.0256 | 
SMU1 | 0.423 | 
POLR2I | 0.429 | 
RTF1 | 0.0675 | 
MRPL22 | -0.00907 | 
RPL26 | 0.817 | 
RPL28 | 0.852 | 
PTDSS1 | 0.124 | 

Substance | solubility change mitosis (log2) (HeLa Kyoto [1]) | also measured
DLG1 | -0.0806 | 
PEX5 | -0.137 | 
RPL10A | 0.596 | 
PAF1 | -0.0983 | 
IWS1 | 0.062 | 
MRPL17 | -0.0699 | 
RPL18A | 0.618 | 
MRPL38 | -0.0167 | 
RPS25 | 0.71 | 
MRPL15 | 0.041 | 
HMGN2 | 1.68 | 
ITPA | 0.0757 | 
ATP1B1 | -0.0049 | 
YTHDC1 | -0.0521 | 
RNF167 | -0.0145 | 
UNC119 | -0.0626 | 
ACTR2 | -0.105 | 
CLIC1 | 0.0655 | 
MAFSQVQCLDDNHVNWRSSESKPEFFYSEEQRLALEALVARGRDAFYEVLKRENIRDFLSELELKRILETIEVYDPGSEDPRGTGPSQGPEDNGVGDGEEASGADGVPIEAEPLPSLEYWPQKSDRSIPQLDLGWPDTIAYRGVTRASVYMQPPIDGQAHIKEVVRKMISQAQKVIAVVMDMFTDVDIFKDLLDAGFKRKVAVYIIVDESNVKYFLHMCERACMHLGHLKNLRVRSSGGTEFFTRSATKFKGALAQKFMFVDGDRAVCGSYSFTWSAARTDRNVISVLSGQVVEMFDRQFQELYLMSHSVSLKGIPMEKEPEPEPIVLPSVVPLVPAGTVAKKLVNPKYALVKAKSVDEIAKISSEKQEAKKPLGLKGPALAEHPGELPELLPPIHPGLLHLERANMFEYLPTWVEPDPEPGSDILGYINIIDPNIWNPQPSQMNRIKIRDTSQASAQHQLWKQSQDSRPRPEPCPPPEPSAPQDGVPAENGLPQGDPEPLPPVPKPRTVPVADVLARDSSDIGWVLELPKEEAPQNGTDHRLPRMAGPGHAPLQRQLSVTQDDPESLGVGLPNGLDGVEEEDDDDYVTLSDQDSHSGSSGRGPGPRRPSVASSVSEEYFEVREHSVPLRRRHSEQVANGPTPPPRRQLSAPHITRGTFVGPQGGSPWAQSRGREEADALKRMQAQRSTDKEAQGQQFHHHRVPASGTRDKDGFPGPPRYRSAADSVQSSTRNAGPAMAGPHHWQAKGGQVPRLLPDPGSPRLAQNARPMTDGRATEEHPSPFGIPYSKLSQSKHLKARTGGSQWASSDSKRRAQAPRDRKDP [FAM83G] |  | melting temperature (HeLa Kyoto [2]; cell cycle stage: G1/S): 51.3 °C; thermal stability score (HeLa Kyoto [3]; [4]): 1.03; thermal stability score (HeLa Kyoto [3]; cell cycle stage: mitosis): 0.873
MRPL16 | 0.059 | 
SUPT5H | -0.0755 | 
POFUT1 | -0.148 | 
GTPBP4 | 0.746 | 
MRSPVRDLARNDGEESTDRTPLLPGAPRAEAAPVCCSARYNLAILAFFGFFIVYALRVNLSVALVDMVDSNTTLEDNRTSKACPEHSAPIKVHHNQTGKKYQWDAETQGWILGSFFYGYIITQIPGGYVASKIGGKMLLGFGILGTAVLTLFTPIAADLGVGPLIVLRALEGLGEGVTFPAMHAMWSSWAPPLERSKLLSISYAGAQLGTVISLPLSGIICYYMNWTYVFYFFGTIGIFWFLLWIWLVSDTPQKHKRISHYEKEYILSSLRNQLSSQKSVPWVPILKSLPLWAIVVAHFSYNWTFYTLLTLLPTYMKEILRFNVQENGFLSSLPYLGSWLCMILSGQAADNLRAKWNFSTLCVRRIFSLIGMIGPAVFLVAAGFIGCDYSLAVAFLTISTTLGGFCSSGFSINHLDIAPSYAGILLGITNTFATIPGMVGPVIAKSLTPDNTVGEWQTVFYIAAAINVFGAIFFTLFAKGEVQNWALNDHHGHRH [SLC17A5] |  | melting temperature (HeLa Kyoto [2]; cell cycle stage: G1/S): 57.3 °C; melting temperature (HeLa Kyoto [2]; cell cycle stage: mitosis): 57.6 °C; thermal stability score (HeLa Kyoto [3]; [4]): -3.39; thermal stability score (HeLa Kyoto [3]; cell cycle stage: mitosis): -4.02
